Experimental data from patent publication US9328334B2, “Luciferase derived from lucidina accensa” (OLYMPUS CORPORATION, priority 2011, dated 2016).
“Also recorded” adds a separate entry of the source.

What was measured:
[1] = Stability against degradation: SDS-polyacrylamide gel electrophoresis of lysate of E. coli expressing each luciferase (Example 4); details: lysate of E. coli BL21 (DE3) CodonPlus expressing the luciferase
Protocol: Stability against degradation was determined for the wild type luciferase derived from L. accensa in comparison with a known luciferase derived from L. biplagiata.
The above three genes were introduced into an expression vector and expressed in E. coli. The expression was carried out in the same manner as the Example 2 except that BL21 (DE3) CodonPlus (manufactured by Stratagene Corporation) was used as E. coli strain and the cells were cultured appropriately.
The lysate was prepared from the E. coli expressing each gene, and then subjected to SDS-polyacrylamide gel electrophoresis. It was confirmed that, as a band with the biggest size, a single band is present near 70 kDa for all three kinds of protein. […] Meanwhile, in the luciferase derived from L. biplagiata (i.e., left and right lanes), several bands with a size smaller than 70 kDa were identified.

HeLa cell = test: Luminescence intensity of luciferase expressed in HeLa cell, comparison with P. pyralis luciferase (Example 3); type: cell-based; details: 2 mM D-luciferin, 25° C., 90 min after starting measurement
Protocol: Each of the wild type luciferase derived from L. accensa, the mutant luciferase derived from L. accensa (N50D and 1530R), and the luciferase derived from P. pyralis (SEQ ID NO: 33) was expressed in a HeLa cell, and the luminescence intensity was measured and compared to each other.
Further, since the pF9A vector contains the luciferase gene derived from Renilla reniformis as an internal control, it is possible to obtain the luminescence intensity from the luminescent gene inserted to the multicloning site as a ratio compared to the luminescence intensity emitted by the Renilla luciferase.
Three types of plasmids obtained in such a manner described above were each subjected to gene transfection to a HeLa cell, which has been inoculated in a 24-well plate, by a lipofection method, and 24 hours later, the cells were washed with PBS. To each well of a 24-well plate, 500 μL of 2 mM D-luciferin/CO2 Independent Medium (manufactured by Invitrogen) was added and the luminescence intensity was measured for 90 min by using a Luminescensor (manufactured by ATTO Corporation) under the condition including 25° C. and 1 sec per each well. The luminescence intensity which is obtained at the time point of 90 min after starting the measurement was taken as the luminescence intensity of the wild type luciferase, the mutant luciferase, and P. pyralis luciferase. […] Subsequently, 500 μL of 10 μM coelenterazine/CO2 Independent Medium was added to each well and the luminescence intensity was measured for 30 min by using a Luminescensor under the condition including 25° C. and 1 sec per each well. The luminescence intensity obtained at five minutes after the addition of coelenterazine was taken as luminescence intensity of the Renilla luciferase, which is an internal control. Each of the luminescence intensity from the wild type luciferase, the mutant luciferase, and P. pyralis luciferase was divided by the luminescence intensity of the Renilla luciferase, and the results are illustrated as a graph illustrating the luminescence intensity of each luciferase.

[2] = Measurement of Km for D-luciferin; type: biochemical; details: 0.1 M Tris-HCl pH 8.0, ATP and MgSO4 present
Protocol: Eight types of D-luciferin solution of various concentrations were prepared by adding D-luciferin to 0.1 M Tris-HCl (pH 8.0). These solutions contain D-luciferin at final concentrations of 0.625, 1.25, 2.5, 5, 10, 20, 40, and 80 μM. These D-luciferin solutions were aliquoted into 96-well microplate at a volume of 50 μL each. A solution of 0.1 M Tris-HCl (pH 8.0) containing each of the purified luciferase, 4 mM of ATP, and 8 mM of MgSO4 was connected to the standard pump of the luminometer, and the measurements was carried out at the same time as addition of 50 μL of the solution to the well. A Luminescensor (manufactured by ATTO Corporation) was used for the measurements. Measurements were repeated 3 times for each luciferin concentration.
(§1) The peak intensity of the obtained photon count value was plotted with respect to luciferin concentration S, defining the initial rate as V. The plots were subjected to curve fitting of Michaelis Menten type, thereby giving Km values. The curve fitting was performed by a nonlinear least-squares method, and the search of the parameter was performed by a Newton method.

HeLa cells = test: Luminescence intensity of luciferase expressed in HeLa cells, comparison with L. biplagiata luciferase (Example 5); type: cell-based; details: 37° C.
Excerpt: The luminescence intensity from the light emitting reaction using the wild type luciferase derived from L. accensa (SEQ ID NO: 1) was compared to the luminescence intensity from the light emitting reaction using the luciferase derived from L. biplagiata having the literature sequence (SEQ ID NO: 30) or the luciferase derived from L. biplagiata having the cloned sequence (SEQ ID NO: 31). Further, based on the difference between the literature sequence and the cloned sequence, the amino acid residue at position 249 of the amino acid sequence of the wild type luciferase, i.e., methionine, was changed to lysine to prepare the mutant luciferase (M249K), which was then used for the intensity measurement.
With regard to the four types of the luciferase, a nucleic acid containing a gene optimized for mammalian cell expression was given with a Kozak sequence, and then inserted between SgfI and PmeI sites within the multicloning site of pF9A CMV hRLuc neo Flexi vector (manufactured by Promega). Further, since the pF9A vector contains the luciferase gene derived from Renilla reniformis as an internal control in the vector sequence, it is possible to obtain the luminescence intensity from the luminescent gene inserted to the multicloning site as a ratio compared to the luminescence intensity emitted by the Renilla luciferase.
Four types of luciferase plasmids obtained in such a manner described above were each subjected to gene transfection to HeLa cells inoculated in a 48-well plate by a lipofection method, and 24 hours later, the cells were washed with PBS. To each well of a 48-well plate, 500 μL of 2 mM D-luciferin/CO2 Independent Medium (manufactured by Invitrogen) was added and the luminescence intensity was measured for 90 min by using a Luminescensor (manufactured by ATTO Corporation) under the condition including 37° C. and 1 sec per each well. The luminescence intensity which is obtained at the time point of 90 min after starting the measurement was taken as the luminescence intensity of each luciferase. […] Subsequently, 500 μL of 10 μM coelenterazine/CO2 Independent Medium was added to each well and the luminescence intensity was measured for 30 min by using a Luminescensor under the condition including 37° C. and 1 sec per each well. The luminescence intensity obtained at five minutes after the addition of coelenterazine was taken as luminescence intensity of the Renilla luciferase, which is an internal control. Each of the luminescence intensities from the luciferases was divided by the luminescence intensity of the Renilla luciferase, yielding the luminescence intensity of each luciferase. The measurements were carried out multiple times for each luciferase, and the luminescence intensity was obtained as a mean value.

[3] = Measurement of light emission spectra of purified luciferase under various pH environments; type: biochemical; details: light emission spectra at various pH
Protocol: With use of LumiFlSpectroCapture (manufactured by ATTO Corporation) as an apparatus for measurement, to a solution of 0.1 M citric acid/0.1 M Na2HPO4 buffer (pH 5.5 to 8.0) containing 1 mM of D-luciferin, 2 mM of ATP and 4 mM of MgCl2 the purified enzyme was added at a final concentration of 1 μg/mL, and after 15 seconds of addition of the enzyme luminescence spectra was measured. The measurement results were illustrated in FIG. 1.
After that, each of thus-prepared genes (SEQ ID NOs: 38 and 39) was introduced into pRSET-B vector according to the same method as the Example 2. This vector was transformed to E. coli JM109 (DE3) strain to express the mutant luciferase. Subsequently, the mutant luciferase was purified from E. coli. In addition, under various pH environments, the light emission spectrum was measured according to the same method as the Example 2 from a light emitting reaction catalyzed by the mutant luciferase.

[4] = Measurement of Km value with respect to ATP; type: biochemical; details: 0.1 M Tris-HCl pH 8.0, D-luciferin and MgSO4 present
Protocol: Various 8 types of ATP solutions with different concentrations were prepared by adding ATP to 0.1 M Tris-HCl (pH 8.0). These solutions contain ATP at final concentration of 10, 20, 40, 80, 160, 320, 480, and 640 μM. These ATP solutions were aliquoted into a 96-well microplate at a volume of 50 μl each. 0.1 M Tris-HCl (pH 8.0) solution containing each purified luciferase, 1 mM of D-luciferin, and 8 mM of MgSO4 was connected to a standard pump of a luminometer, and the measurement was carried out at the same time as addition of 50 μL of the solution to wells. Measurement was repeated 3 times for each ATP concentration.
as §1, with “peak intensities” for “peak intensity”, “value were” for “value was”, “to ATP” for “to luciferin”, “S, with an” for “S, defining the”, “rate” for “rate as”, “Km value.” for “Km values.”

B1: wild type luciferase: wild type luciferase obtained from Lucidina accensa, amino acid sequence SEQ ID NO: 1 (protein, listed as Lucidina accensa)
chain: MEEDKNILRGPAPFYPLEDGTAGEQLHRAMKRYALIPGTIAFTDAHAGVNITYSEYFEMACRLAESLKRYGLGLQHRIVVCSENSLQFFMPVVGALFIGVGVAPANDIYNERELLNSMTISQPTLVFCSRKGLQKILNVQKKLPVIQKIIILDTKEDYMGFQSMYSFVDSQLPVGFNEYDYVPDSFDRDQATALIMNSSGSTGLPKGVELNHTSVCVRFSHCRDPVYGNQIIPDTAILSVIPFHHGFGMFTTLGYLICGFRVVLMYRFEEELFLRSLQDYKIQSALLVPTLFSFFAKSTLIDKYDLSNLHEIASGGAPLAKEVGEAVAKRFNLRGIRQGYGLTETTSAVIITPEGDDKPGAVGKVVPFFSAKVVDLDTGKTLGVNQRGELCLKGPMIMKGYVNNPEATNALIDKDGWLHSGDISYWDEDGHFFIVDRLKSLIKYKGYQVPPAELESILLQHPFIFDAGVAGIPDDEAGELPAAVVVLEEGKTMTEKEIMDYVAGQVTTAKRLRGGVVFVDEVPKGLTGKIDARKIREILVKVKKTKSKL
[1]
  stability against protein degradation (bands on stained SDS-PAGE gel): no other band was identified; also recorded: hardly degraded; also recorded: no degradation occurred
HeLa cell
  luminescence intensity (divided by luminescence intensity of Renilla luciferase internal control): 7.3
[2]
  Km: 16 µM
HeLa cells; 2 mM D-luciferin, 90 min
  luminescence intensity, mean value (divided by Renilla luciferase intensity): 3.48
HeLa cells
  luminescence intensity in comparison to luciferase derived from L. biplagiata having the literature sequence: ≥ 29 times
  luminescence intensity in comparison to mutant luciferase M249K: ≥ 34.8 times
[3]
  pH environment giving the highest luminescence intensity: 8 pH
[4]
  Km: 47.6 µM
